Assay results published in article PMC9482650, “Quantitative fragmentomics allow affinity mapping of interactomes” (Nature Communications, 2022).

These binders were tested against AHNAK1, Q09666 (assay: holdup assay). Details: plain residues with an end cap or a label only (N-terminal biotin on a linker: ado-ado).
Parameters: key: below the threshold = too weak to quantify, mostly under pKd 3.1 to 4

Sequence of AHNAK1, Q09666 (Q09666 4-100): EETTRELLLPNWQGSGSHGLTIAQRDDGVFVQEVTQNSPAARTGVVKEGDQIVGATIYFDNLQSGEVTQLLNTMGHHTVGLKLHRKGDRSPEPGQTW

pKd | Binder
below the threshold | GVHSNDHSVV [LPAR1, Q92633]
below the threshold | YAEKRMLTEV [KCNA6, P17658]

Each binder was assayed against T1, APBA2_1, Q99767 (assay: holdup assay). Details: plain residues with an end cap or a label only (N-terminal biotin on a linker: ado-ado).
T1 sequence (Q99767 563-664, limits assumed, looked up): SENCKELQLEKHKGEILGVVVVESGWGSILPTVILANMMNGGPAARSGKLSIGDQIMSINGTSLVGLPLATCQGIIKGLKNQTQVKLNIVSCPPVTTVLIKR
Parameters: key: below the threshold = too weak to quantify, mostly under pKd 3.1 to 4

pKd | Binder
below the threshold | GVHSNDHSVV [LPAR1, Q92633]
below the threshold | YAEKRMLTEV [KCNA6, P17658]

What follows are binders tested against T2, APBA2_2, Q99767 (assay: holdup assay). Details: plain residues with an end cap or a label only (N-terminal biotin on a linker: ado-ado).
T2 sequence (Q99767 654-744, limits assumed, looked up): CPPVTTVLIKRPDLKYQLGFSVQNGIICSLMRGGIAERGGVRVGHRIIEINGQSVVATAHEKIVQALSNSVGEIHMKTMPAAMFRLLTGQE
Parameters: key: below the threshold = too weak to quantify, mostly under pKd 3.1 to 4

pKd | Binder
below the threshold | GVHSNDHSVV [LPAR1, Q92633]
below the threshold | YAEKRMLTEV [KCNA6, P17658]

These binders were tested against ARHGEF12, Q9NZN5-2 (assay: holdup assay). Details: plain residues with an end cap or a label only (N-terminal biotin on a linker: ado-ado).
Parameters: key: below the threshold = too weak to quantify, mostly under pKd 3.1 to 4

Sequence of ARHGEF12, Q9NZN5-2 (Q9NZN5 other isoform, or with tags, fused parts or gaps): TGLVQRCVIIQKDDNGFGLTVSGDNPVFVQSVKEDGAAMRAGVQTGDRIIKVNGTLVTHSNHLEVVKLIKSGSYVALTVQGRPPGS

pKd | Binder
3.54 | GVHSNDHSVV [LPAR1, Q92633]
4.91 | YAEKRMLTEV [KCNA6, P17658]

What follows are binders tested against T3, CARD11, Q9BXL7 (assay: holdup assay). Details: plain residues with an end cap or a label only (N-terminal biotin on a linker: ado-ado).
T3 sequence (Q9BXL7 662-765, limits assumed, looked up): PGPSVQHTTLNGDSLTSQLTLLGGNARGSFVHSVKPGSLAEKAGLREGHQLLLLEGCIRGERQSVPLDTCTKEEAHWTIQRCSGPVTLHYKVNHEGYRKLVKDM
Parameters: key: below the threshold = too weak to quantify, mostly under pKd 3.1 to 4

pKd | Binder
below the threshold | GVHSNDHSVV [LPAR1, Q92633]
below the threshold | YAEKRMLTEV [KCNA6, P17658]

Each binder was assayed against T4, DVL3, Q92997 (assay: holdup assay). Details: plain residues with an end cap or a label only (N-terminal biotin on a linker: ado-ado).
T4 sequence (Q92997 244-331, limits assumed, looked up): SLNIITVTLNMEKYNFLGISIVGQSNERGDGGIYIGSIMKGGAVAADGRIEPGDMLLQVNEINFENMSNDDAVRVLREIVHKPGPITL
Parameters: key: below the threshold = too weak to quantify, mostly under pKd 3.1 to 4

pKd | Binder
below the threshold | GVHSNDHSVV [LPAR1, Q92633]
below the threshold | YAEKRMLTEV [KCNA6, P17658]

These binders were tested against T5, FRMPD1, Q5SYB0 (assay: holdup assay). Details: plain residues with an end cap or a label only (N-terminal biotin on a linker: ado-ado).
T5 sequence (Q5SYB0 52-145, limits assumed, looked up): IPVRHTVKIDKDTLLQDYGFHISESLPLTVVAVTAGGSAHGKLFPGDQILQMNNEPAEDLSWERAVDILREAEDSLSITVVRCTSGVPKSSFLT
Parameters: key: below the threshold = too weak to quantify, mostly under pKd 3.1 to 4

pKd | Binder
below the threshold | GVHSNDHSVV [LPAR1, Q92633]
below the threshold | YAEKRMLTEV [KCNA6, P17658]

The binders below were run against T6, GRIP1_7, Q9Y3R0 (assay: holdup assay). Details: plain residues with an end cap or a label only (N-terminal biotin on a linker: ado-ado).
T6 sequence (Q9Y3R0 999-1096, limits assumed, looked up): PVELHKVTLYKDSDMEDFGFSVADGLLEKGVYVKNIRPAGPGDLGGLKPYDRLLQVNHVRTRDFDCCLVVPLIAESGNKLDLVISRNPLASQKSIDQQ
Parameters: key: below the threshold = too weak to quantify, mostly under pKd 3.1 to 4

pKd | Binder
below the threshold | GVHSNDHSVV [LPAR1, Q92633]
below the threshold | YAEKRMLTEV [KCNA6, P17658]

The binders below were run against GRIP2_3, Q9C0E4 (assay: holdup assay). Details: plain residues with an end cap or a label only (N-terminal biotin on a linker: ado-ado).
Parameters: key: below the threshold = too weak to quantify, mostly under pKd 3.1 to 4

Sequence of GRIP2_3, Q9C0E4 (Q9C0E4 238-339): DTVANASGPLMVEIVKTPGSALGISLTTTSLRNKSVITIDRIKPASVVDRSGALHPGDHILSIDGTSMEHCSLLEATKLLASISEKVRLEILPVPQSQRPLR

pKd | Binder
below the threshold | GVHSNDHSVV [LPAR1, Q92633]
below the threshold | YAEKRMLTEV [KCNA6, P17658]

Each binder was assayed against T7, HTRA4, P83105 (assay: holdup assay). Details: plain residues with an end cap or a label only (N-terminal biotin on a linker: ado-ado).
T7 sequence (P83105 378-476, limits assumed, looked up): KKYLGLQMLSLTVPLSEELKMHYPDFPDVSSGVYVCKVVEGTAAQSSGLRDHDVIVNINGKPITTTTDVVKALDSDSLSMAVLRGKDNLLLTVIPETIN
Parameters: key: below the threshold = too weak to quantify, mostly under pKd 3.1 to 4

pKd | Binder
below the threshold | GVHSNDHSVV [LPAR1, Q92633]
4.38 | YAEKRMLTEV [KCNA6, P17658]

The binders below were run against Inadl_3, Q8NI35 (assay: holdup assay). Details: plain residues with an end cap or a label only (N-terminal biotin on a linker: ado-ado).
Parameters: key: below the threshold = too weak to quantify, mostly under pKd 3.1 to 4

Sequence of Inadl_3, Q8NI35 (Q8NI35 359-469): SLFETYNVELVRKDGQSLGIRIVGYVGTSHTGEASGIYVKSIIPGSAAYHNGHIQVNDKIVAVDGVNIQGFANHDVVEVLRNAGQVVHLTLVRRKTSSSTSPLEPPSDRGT

pKd | Binder
below the threshold | GVHSNDHSVV [LPAR1, Q92633]
below the threshold | YAEKRMLTEV [KCNA6, P17658]

These binders were tested against LIMK2, P53671 (assay: holdup assay). Details: plain residues with an end cap or a label only (N-terminal biotin on a linker: ado-ado).
Parameters: key: below the threshold = too weak to quantify, mostly under pKd 3.1 to 4

Sequence of LIMK2, P53671 (P53671 143-248): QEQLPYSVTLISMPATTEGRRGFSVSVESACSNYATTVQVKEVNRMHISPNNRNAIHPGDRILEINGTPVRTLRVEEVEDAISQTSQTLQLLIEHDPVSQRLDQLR

pKd | Binder
below the threshold | GVHSNDHSVV [LPAR1, Q92633]
below the threshold | YAEKRMLTEV [KCNA6, P17658]

The binders below were run against T8, LNX2_2, Q8N448 (assay: holdup assay). Details: plain residues with an end cap or a label only (N-terminal biotin on a linker: ado-ado).
T8 sequence (Q8N448 334-432, limits assumed, looked up): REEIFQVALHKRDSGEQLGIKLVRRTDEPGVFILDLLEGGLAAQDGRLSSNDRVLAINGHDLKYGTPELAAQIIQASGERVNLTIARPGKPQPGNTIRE
Parameters: key: below the threshold = too weak to quantify, mostly under pKd 3.1 to 4

pKd | Binder
4.26 | GVHSNDHSVV [LPAR1, Q92633]
4.04 | YAEKRMLTEV [KCNA6, P17658]

These binders were tested against MAST2, Q6P0Q8 (assay: holdup assay). Details: plain residues with an end cap or a label only (N-terminal biotin on a linker: ado-ado).
Parameters: key: below the threshold = too weak to quantify, mostly under pKd 3.1 to 4

Sequence of MAST2, Q6P0Q8 (Q6P0Q8 1099-1202): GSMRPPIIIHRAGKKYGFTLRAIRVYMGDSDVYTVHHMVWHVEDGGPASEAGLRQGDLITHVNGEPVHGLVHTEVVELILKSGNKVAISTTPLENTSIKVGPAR

pKd | Binder
4.12 | GVHSNDHSVV [LPAR1, Q92633]
5.6 | YAEKRMLTEV [KCNA6, P17658]

The binders below were run against T9, MPDZ_12, O75970 (assay: holdup assay). Details: plain residues with an end cap or a label only (N-terminal biotin on a linker: ado-ado).
T9 sequence (O75970 1857-1958, limits assumed, looked up): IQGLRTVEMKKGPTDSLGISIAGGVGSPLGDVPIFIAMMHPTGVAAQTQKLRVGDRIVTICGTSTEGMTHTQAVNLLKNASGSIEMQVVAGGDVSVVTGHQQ
Parameters: key: below the threshold = too weak to quantify, mostly under pKd 3.1 to 4

pKd | Binder
below the threshold | GVHSNDHSVV [LPAR1, Q92633]
3.55 | YAEKRMLTEV [KCNA6, P17658]

What follows are binders tested against T10, MPP2, Q14168 (assay: holdup assay). Details: plain residues with an end cap or a label only (N-terminal biotin on a linker: ado-ado).
T10 sequence (Q14168 180-250, limits assumed, looked up): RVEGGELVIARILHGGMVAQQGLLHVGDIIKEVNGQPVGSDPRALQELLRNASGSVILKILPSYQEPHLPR
Parameters: key: below the threshold = too weak to quantify, mostly under pKd 3.1 to 4

pKd | Binder
below the threshold | GVHSNDHSVV [LPAR1, Q92633]
below the threshold | YAEKRMLTEV [KCNA6, P17658]

The binders below were run against T11, MPP7, Q5T2T1 (assay: holdup assay). Details: plain residues with an end cap or a label only (N-terminal biotin on a linker: ado-ado).
T11 sequence (Q5T2T1 134-230, limits assumed, looked up): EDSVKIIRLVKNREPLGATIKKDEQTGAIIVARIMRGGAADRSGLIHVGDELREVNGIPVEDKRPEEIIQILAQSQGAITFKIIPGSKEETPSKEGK
Parameters: key: below the threshold = too weak to quantify, mostly under pKd 3.1 to 4

pKd | Binder
below the threshold | GVHSNDHSVV [LPAR1, Q92633]
below the threshold | YAEKRMLTEV [KCNA6, P17658]

These binders were tested against T12, NHERF3_3, Q5T2W1 (assay: holdup assay). Details: plain residues with an end cap or a label only (N-terminal biotin on a linker: ado-ado).
T12 sequence (Q5T2W1 238-333, limits assumed, looked up): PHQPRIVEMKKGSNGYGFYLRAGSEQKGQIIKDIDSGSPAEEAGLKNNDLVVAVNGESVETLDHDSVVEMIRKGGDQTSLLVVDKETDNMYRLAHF
Parameters: key: below the threshold = too weak to quantify, mostly under pKd 3.1 to 4

pKd | Binder
below the threshold | GVHSNDHSVV [LPAR1, Q92633]
below the threshold | YAEKRMLTEV [KCNA6, P17658]

What follows are binders tested against T13, PDZD7_3, Q9H5P4 (assay: holdup assay). Details: plain residues with an end cap or a label only (N-terminal biotin on a linker: ado-ado).
T13 sequence (Q9H5P4 857-944, limits assumed, looked up): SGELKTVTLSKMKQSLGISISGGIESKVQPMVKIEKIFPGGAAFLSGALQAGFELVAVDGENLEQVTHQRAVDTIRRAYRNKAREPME
Parameters: key: below the threshold = too weak to quantify, mostly under pKd 3.1 to 4

pKd | Binder
3.68 | GVHSNDHSVV [LPAR1, Q92633]
4.95 | YAEKRMLTEV [KCNA6, P17658]

Each binder was assayed against SCRIB_1, Q14160 (assay: holdup assay). Details: plain residues with an end cap or a label only (N-terminal biotin on a linker: ado-ado).
Parameters: key: below the threshold = too weak to quantify, mostly under pKd 3.1 to 4

Sequence of SCRIB_1, Q14160 (Q14160 718-814): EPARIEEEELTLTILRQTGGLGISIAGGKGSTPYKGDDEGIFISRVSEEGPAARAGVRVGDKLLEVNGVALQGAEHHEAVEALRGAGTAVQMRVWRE

pKd | Binder
below the threshold | GVHSNDHSVV [LPAR1, Q92633]
3.63 | YAEKRMLTEV [KCNA6, P17658]

Each binder was assayed against T14, SNTG1, Q9NSN8 (assay: holdup assay). Details: plain residues with an end cap or a label only (N-terminal biotin on a linker: ado-ado).
T14 sequence (Q9NSN8 52-150, limits assumed, looked up): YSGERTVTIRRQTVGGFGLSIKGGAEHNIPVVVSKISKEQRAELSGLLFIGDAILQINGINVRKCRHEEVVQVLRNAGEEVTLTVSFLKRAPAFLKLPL
Parameters: key: below the threshold = too weak to quantify, mostly under pKd 3.1 to 4

pKd | Binder
below the threshold | GVHSNDHSVV [LPAR1, Q92633]
3.57 | YAEKRMLTEV [KCNA6, P17658]

What follows are binders tested against T15, TIAM2, Q8IVF5 (assay: holdup assay). Details: plain residues with an end cap or a label only (N-terminal biotin on a linker: ado-ado).
T15 sequence (Q8IVF5 885-986, limits assumed, looked up): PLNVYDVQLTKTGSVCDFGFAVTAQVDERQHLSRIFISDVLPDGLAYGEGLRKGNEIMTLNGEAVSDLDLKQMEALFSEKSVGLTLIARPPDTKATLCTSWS
Parameters: key: below the threshold = too weak to quantify, mostly under pKd 3.1 to 4

pKd | Binder
3.94 | GVHSNDHSVV [LPAR1, Q92633]
3.99 | YAEKRMLTEV [KCNA6, P17658]

The binders below were run against TJP1_2, Q07157 (assay: holdup assay). Details: plain residues with an end cap or a label only (N-terminal biotin on a linker: ado-ado).
Parameters: key: below the threshold = too weak to quantify, mostly under pKd 3.1 to 4

Sequence of TJP1_2, Q07157 (Q07157 181-274): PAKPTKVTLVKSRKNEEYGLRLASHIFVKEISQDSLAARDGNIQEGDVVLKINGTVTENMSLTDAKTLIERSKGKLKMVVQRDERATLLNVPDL

pKd | Binder
below the threshold | GVHSNDHSVV [LPAR1, Q92633]
below the threshold | YAEKRMLTEV [KCNA6, P17658]
